Laboratory results published in US12098198 (ABION, dated 2024).

How the values were obtained:
human claudin 3 [1] = molecular target: T1, human claudin 3 (human, UniProt O15551 1-220); test: LigandTracer Green, FITC-conjugated antibody on hCLDN3/HEK293 cells against HEK293, 1:1 two state model
T1 construct: cell lysate in the immunoprecipitation; also called CLDN3; hCLDN3
T1 sequence: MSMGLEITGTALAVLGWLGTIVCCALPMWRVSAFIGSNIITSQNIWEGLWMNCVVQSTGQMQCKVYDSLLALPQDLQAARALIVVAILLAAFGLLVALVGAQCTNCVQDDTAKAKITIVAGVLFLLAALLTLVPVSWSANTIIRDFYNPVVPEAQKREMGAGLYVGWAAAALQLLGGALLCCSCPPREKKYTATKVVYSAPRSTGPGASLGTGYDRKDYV

human claudin 3 [2] = molecular target: T1, human claudin 3; test: LigandTracer Green, FITC-conjugated antibody on hCLDN3/HEK293 cells against HEK293, 1:1 two state model (ka1)
human claudin 3 [3] = molecular target: T1, human claudin 3; test: LigandTracer Green, FITC-conjugated antibody on hCLDN3/TOV-112D cells against TOV-112D, 1:1 two state model (kd1)
human claudin 3 [4] = molecular target: T1, human claudin 3; test: LigandTracer Green, FITC-conjugated antibody on hCLDN3/TOV-112D cells against TOV-112D, 1:1 two state model (ka1)
human claudin 3 [5] = molecular target: T1, human claudin 3; test: LigandTracer Green, FITC-conjugated antibody on hCLDN3/HEK293 cells against HEK293, 1:1 two state model (kd1)
human claudin 3 [6] = molecular target: T1, human claudin 3; test: LigandTracer Green, FITC-conjugated antibody on hCLDN3/TOV-112D cells against TOV-112D, 1:1 two state model

Kd (human claudin 3 [1]): 4.03 nM
kon (human claudin 3 [2]): 46600 M⁻¹ s⁻¹
koff (human claudin 3 [3]): 0.000337 s⁻¹
kon (human claudin 3 [4]): 47400 M⁻¹ s⁻¹
koff (human claudin 3 [5]): 0.000671 s⁻¹
Kd (human claudin 3 [6]): 2.35 nM
B1: 4G3 IgG antibody (antibody, V domains shown)
VH: EVQLLESGGGLVQPGGSLRLSCAASGFTFSSYAMSWVRQAPGKGLEWVSIINPSGASTSHAQRFQGRFTISRDNSKNTLYLQMNSLRAEDTAVYYCARYGRYGSFDIWGQGTLVTVSS
VL: QSVLTQPPSASGTPGQRVTISCSGSTSNIGRNYVSWYQQLPGTAPKLLIYDTSNKHFGVPDRFSGSKSGTSASLAISGLRSEDEADYYCQSYDSSKVVFGGGTKLTVL
